Assay results as given in IntAct's records for PubMed 11872753.

B1: Acid-sensing ion channel 3 (Rattus norvegicus (Rat)), O35240 (parent)
chain: MKPRSGLEEAQRRQASDIRVFASSCTMHGLGHIFGPGGLTLRRGLWATAVLLSLAAFLYQVAERVRYYGEFHHKTTLDERESHQLTFPAVTLCNINPLRRSRLTPNDLHWAGTALLGLDPAEHAAYLRALGQPPAPPGFMPSPTFDMAQLYARAGHSLEDMLLDCRYRGQPCGPENFTVIFTRMGQCYTFNSGAHGAELLTTPKGGAGNGLEIMLDVQQEEYLPIWKDMEETPFEVGIRVQIHSQDEPPAIDQLGFGAAPGHQTFVSCQQQQLSFLPPPWGDCNTASLDPDDFDPEPSDPLGSPRPRPSPPYSLIGCRLACESRYVARKCGCRMMHMPGNSPVCSPQQYKDCASPALDAMLRKDTCVCPNPCATTRYAKELSMVRIPSRASARYLARKYNRSESYITENVLVLDIFFEALNYEAVEQKAAYEVSELLGDIGGQMGLFIGASLLTILEILDYLCEVFQDRVLGYFWNRRSAQKRSGNTLLQEELNGHRTHVPHLSLGPRPPTTPCAVTKTLSASHRTCYLVTRL
partner: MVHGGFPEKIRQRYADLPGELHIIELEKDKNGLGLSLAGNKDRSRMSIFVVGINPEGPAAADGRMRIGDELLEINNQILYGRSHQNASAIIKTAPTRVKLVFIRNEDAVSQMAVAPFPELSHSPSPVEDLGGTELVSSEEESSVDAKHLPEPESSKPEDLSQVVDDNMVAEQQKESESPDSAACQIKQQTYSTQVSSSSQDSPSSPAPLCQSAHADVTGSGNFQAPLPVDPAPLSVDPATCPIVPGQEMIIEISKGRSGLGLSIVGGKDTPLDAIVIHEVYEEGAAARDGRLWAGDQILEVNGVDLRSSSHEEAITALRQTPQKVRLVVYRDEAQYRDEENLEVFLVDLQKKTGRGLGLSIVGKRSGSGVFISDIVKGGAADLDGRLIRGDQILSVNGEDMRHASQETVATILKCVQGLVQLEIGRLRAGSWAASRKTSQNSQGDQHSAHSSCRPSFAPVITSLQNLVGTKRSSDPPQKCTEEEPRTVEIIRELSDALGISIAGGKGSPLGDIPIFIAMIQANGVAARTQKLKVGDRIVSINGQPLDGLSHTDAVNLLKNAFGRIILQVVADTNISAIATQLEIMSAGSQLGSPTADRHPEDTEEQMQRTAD

Variants of: B1
Conditions: with Patj
For L533F, the “effect of a mutation on the interaction” value was “disrupting interaction”.
